Target: T1, recombinant hexahistidine-tagged ScSec4 (S. cerevisiae, UniProt P07560 1-215)
T1 sequence: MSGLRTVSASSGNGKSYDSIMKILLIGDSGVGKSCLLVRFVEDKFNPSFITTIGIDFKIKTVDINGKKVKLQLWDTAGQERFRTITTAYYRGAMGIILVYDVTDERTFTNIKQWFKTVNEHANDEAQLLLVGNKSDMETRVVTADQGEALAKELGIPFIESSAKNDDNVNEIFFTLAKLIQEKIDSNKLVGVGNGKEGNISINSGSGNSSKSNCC
Experiment: […]) in EDTA binding buffer

B1: GST-ScSec2^1-160 (domain or fragment)
chain: MDASEEAKRVSIQVTSLSTQLIESVDKQSHLEEQLNKSLKTIASQKAAIENYNQLKEDYNTLKRELSDRDDEVKRLREDIAKENELRTKAEEEADKLNKEVEDLTASLFDEANNMVADARKEKYAIEILNKRLTEQLREKDTLLDTLTLQLKNLKKVMHS
- binding result: binds

From PMC2847530 (Molecular Biology of the Cell, 2010)
